Consider six substances from US20040265918A1.

Assay [1] deals with p29 vesicles (vesicles carrying p29, the substrate binding subunit of type II iodothyronine 5'-deiodinase, D2) (rat) (UniProt Q62876). The assay is described as follows: in vitro actin binding assay, competition with native F-actin-bound myosin V, 10 nM T4.
Assay [2] has as its target p29^GFP-labeled vesicles (vesicles carrying a GFP-tagged p29 fusion protein) [GFP: P42212]. The assay is described as follows: competition with native myosin V in the p29^GFP vesicle / F-actin binding assay, 10 nM T4, ~2-3 pmol polypeptide.
The target of assay [3] is F-actin (actin cytoskeleton of rat astrocytes, Triton-insoluble fraction) (rat). The experiment in a line: in vitro actin binding assay, release with 5 mM EGTA.
Assay [4] has the same target. The assay is described as follows: in vitro actin binding assay, Triton fractionation, gamma counting and SDS-PAGE.
The target is the same in assay [5]. The experiment in a line: in vitro actin binding assay, release after 0.1 mM Ca^2+, 1 mM Mg^2+, 0.1 mM ATP.
Assay [6] shares this target. The experiment in a line: in vitro actin binding assay (F-lysate plus V-lysate, Triton fractionation, SDS-PAGE).
The target is the same in assay [7]. The assay is described as follows: F-lysate plus V-lysate with p29^GFP vesicles, fluorescence of the Triton-insoluble pellet.

In assay [1], “? myosin V^tail (entire myosin V tail, residues 953 to 1852) (from UniProt Q99104 953-1852)” registered a percent of the T4-dependent binding of p29 vesicles to F-actin blocked (5 µl) of 50% and a percent of the p29 binding blocked (10 µl) of more than 95%. This substance also gave a percent decrease of p29 binding to F-actin in assay [2] of more than 75%.
In the case of “? myosin ^1513 (residues 1513-1852) (from UniProt Q99104 1513-1852)”, the percent decrease of T4-dependent p29 binding in assay [2] was more than 75%.
Still for that read-out and setting: under “? myosin ^1767 (residues 1767-1852) (from UniProt Q99104 1767-1852)” stands more than 75%; under “? myosin ^1830 (residues 1830-1852) (from UniProt Q99104 1830-1852) (peptide)”, more than 75%.
In assay [3], “p29 vesicles (vesicles carrying p29, the substrate binding subunit of type II iodothyronine 5'-deiodinase, D2) (from UniProt Q62876 1-234)” yielded a percent of the Ca^2+-stimulated release of p29 from F-actin blocked by EGTA of more than 50%. Moreover, the percent of total p29 vesicles bound to F-actin (after 10 nM T4) in assay [4] was 80%. Moreover, in assay [5], the percent of p29 vesicles released from F-actin by Ca^2+, Mg^2+ and ATP came to 70%. Also, in assay [6], the percent of p29 remaining in the non-actin bound, Triton-soluble fraction (10 nM T3) is more than 90% and the percent of radiolabeled p29 bound to the Triton insoluble, F-actin fraction (10 nM T4) is more than 70%.
“p29^GFP-labeled vesicles (vesicles carrying a GFP-tagged p29 fusion protein) (from UniProt P42212 1-238)”: the percent increase in p29^GFP vesicle binding to F-actin at 100 nM T3 in assay [7] was in the range of 10 to 20%.
